Experiment [1] deals with T1, chicken gizzard Tpm (Gallus gallus, UniProt P19352).
T1 construct: purchased Sigma; host or cells: chicken gizzard (tissue-derived, as the name says)
The experiment can be described thus: Binding to immobilized Tpm in a 96 well plate (biotin-HKa competition or direct binding). The procedure: Plates are coated at room temperature with chicken gizzard Tpm (Sigma) in Tris buffer-saline (TBS) (200 ng/well). After incubation for 2 hours, wells are washed with TBS, then 1% BSA/TBS/Tween-20 is added to each well and incubate at 37° C. for two hours. HKa (Enzyme Laboratories) that had been previously biotinylated with EZ-Link (Pierce) according to the manufacturers instructions, is added to the plate at a concentration of 10 nM together with ZnCl2 (10 μM) and the appropriate concentration of the protein, domain or peptide competitor. The plates are incubated at room temperature and then washed with TBS/Tween-20. Avidin-HRP is added, incubated for 20 minutes at room temperature, washed with TBS/Tween-20 and the chromogenic substrate is added. The reaction is stopped with sulfuric acid and the plate read at 490 nm.
The IC50 for the displacement of biotinylated-HKa for the peptides shown in Table 5 was determined as follows: 10 nM biotin-HKa is added to a 96 well plate previously coated with 200 ng of chicken gizzard Tpm in the presence of 10 μM ZnCl2. Increasing amounts of the peptides are added to the wells. The remaining biotin-HKa bound to Tpm was detected using avidin-HRP and a chromogenic substrate. A Kd was determined by non-linear regression analysis of the empirical data. The effect on the Matrigel Plug assay was determined as follows: Matrigel (0.5 mL) containing 400 ng/ml of bFGF, 50 μg/ml heparin with or without the peptide (300 μM) or saline buffer are injected in the flanks of a mouse. After five days, the plugs are removed and the plugs scanned.
The N-terminus of the pentapeptide HHPHG has been derivatized (capped) in an attempt to increase the pentapeptides' affinity to Tpm by increasing productive molecular contacts (or interactions). […] The IC50 for the displacement of biotinylated-HKa for the capped peptides shown in the table was determined as follows: 10 nM biotin-HKa was added to a 96 well plate previously coated with 200 ng of chicken gizzard Tpm in the presence of 10 μM ZnCl2. Increasing amounts of the peptides were added to the wells. The remaining biotin-HKa bound to Tpm was detected using avidin-HRP and a chromogenic substrate. A Kd was determined by non-linear regression analysis of the empirical data

The target of the next experiment is hTm3 (Homo sapiens, UniProt P09493). To be noted: SPR, MacDonald et al. 2001; read-out: Kd of binding to immobilized hTm3; cited from earlier work. (In general: SPR reads the build-up and loss of mass on a sensor chip optically.)
Chain of hTm3 (P09493 1-284 isoform P09493-3): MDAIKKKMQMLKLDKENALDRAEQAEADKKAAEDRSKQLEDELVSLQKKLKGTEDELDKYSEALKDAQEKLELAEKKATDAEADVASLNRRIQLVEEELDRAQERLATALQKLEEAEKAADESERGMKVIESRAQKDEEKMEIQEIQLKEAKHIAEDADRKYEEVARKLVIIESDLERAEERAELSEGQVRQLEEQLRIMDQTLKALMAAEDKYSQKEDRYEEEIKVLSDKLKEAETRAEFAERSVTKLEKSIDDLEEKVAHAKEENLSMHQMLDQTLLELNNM
The target in experiment [2] is T1, chicken gizzard Tpm. Put plainly: Binding of HKa to purified Tpm immobilized in 96 well microplates. As to conditions: for inhibition of binding of HKa to purified immobilized Tpm (in words): 20 nM biotin-HKa, 10 μM Zn2+. The procedure:
To measure the binding of HKa to purified Tpm, 96 well microplates were coated with 20 μg/ml of chicken gizzard Tpm (Sigma), or bovine serum albumin (BSA), as a control. Wells were then blocked by incubation with phosphate buffered saline containing 5% nonfat milk, and incubated with increasing concentrations of HKa (0.01-20 nM) for 2 hours. Specifically-bound HKa was quantitated as described for cell binding assays (van Iwaarden et al., supra, and by assessing the ability of a 100-fold molar excess of unlabeled HKa to compete with biotin-HKa for binding.
In selected experiments, the ability of mAb TM-311 and recombinant HKa D5 to inhibit the binding of biotin-HKa to Tpm was assessed. These studies allowed determination of the Kd for binding of HKa D5 to Tpm using the equation: Kd (D5)=IC50/(1+[HKa]/Kd (HKa)) where IC50 is the concentration of HKa D5 that inhibited HKa binding by 50%, and Kd(HKa) is the Kd for binding of HKa to Tpm.

The subject of the next experiment is HUVEC. Put plainly: EC proliferation assay (growth factor-induced). The class given is cell-based, human. As to conditions: bFGF 10 ng/ml; 20 nM HKa, 60 nM HKa domain 5. The procedure:
EC proliferation assays. The effect of HKa on ECs in the absence or presence of mAb TM-311 was initially assessed using a proliferation assay, as described in Zhang et al., supra. Relative numbers of cells remaining in each well of a 96 well microplate after incubation for 48 hours in the absence or presence of HKa were determined using the Aqueous® cell proliferation assay (Promega, Madison, Wis.). Results are presented as the percent inhibition of bFGF-induced EC proliferation, which essentially reflects the extent of HKa-induced EC apoptosis. Though bFGF was used as the EC mitogen in most studies of the studies described herein, identical results were obtained using VEGF.

The mark [3] stands for this setting: plate coated with 200 ng chicken gizzard Tpm, 10 μM ZnCl2.
The mark [4] stands for this setting: competition with 10 nM biotin-HKa.

T1 sequence (P19352 1-284 isoform P19352-2): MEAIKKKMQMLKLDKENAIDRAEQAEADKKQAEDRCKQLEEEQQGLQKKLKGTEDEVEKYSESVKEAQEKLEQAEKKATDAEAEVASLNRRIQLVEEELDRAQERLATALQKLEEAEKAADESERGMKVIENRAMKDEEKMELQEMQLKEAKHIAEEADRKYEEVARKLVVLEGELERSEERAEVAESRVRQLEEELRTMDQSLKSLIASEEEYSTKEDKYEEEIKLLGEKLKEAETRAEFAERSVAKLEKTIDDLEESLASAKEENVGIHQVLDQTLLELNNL
T1 sequence (P04268 1-284 isoform P04268-2 F73S/I172L/T199L/N203E/L204A partner): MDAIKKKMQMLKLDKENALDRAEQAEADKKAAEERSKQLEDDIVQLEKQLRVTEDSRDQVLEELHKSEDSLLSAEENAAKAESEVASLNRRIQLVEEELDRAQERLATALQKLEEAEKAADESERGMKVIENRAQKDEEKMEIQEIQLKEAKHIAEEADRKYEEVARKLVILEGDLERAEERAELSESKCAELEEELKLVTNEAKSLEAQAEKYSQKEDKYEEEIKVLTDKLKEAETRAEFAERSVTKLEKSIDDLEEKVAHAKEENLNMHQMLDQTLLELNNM

B1: rabbit HPRG: rabbit Histidine-Proline-Rich Glycoprotein, SEQ ID NO:22 (protein)
chain: LTPTDCKTTKPLAEKALDLINKWRRDGYLFQLLRVADAHLDGAESATVYYLVLDVKETDCSVLSRKHWEDCDPDLTKRPSLDVIGQCKVIATRYSDEYQTLRLNDFNCTTSSVSSALANTKDSPVLFDFIEDTEPFRKSADKALEVYKSESEAYASFRVDRVERVTRVKGGERTNYYVDFSVRNCSRSHFHRHPAFGFCRADLSFDVEASNLENPEDVIISCEVFNFEEHGNISGFRPHLGKTPLGTDGSRDHHHPHKPHKFGCPPPQEGEDFSEGPPLQGGTPPLSPPFRPRCRHRPFGTNETHRFPHHRISVNIIHRPPPHGHHPHGPPPHGHHPHGPPPHGHPPHGPPPRHPPHGPPPHGHPPHGPPPHGHPPHGPPPHGHPPHGPPPHGHPPHGHGFHDHGPCDPPSHKEGPQDLHQHAMGPPPKHPGKRGPGKGHFPFHWRRIGSVYQLPPLQKGEVLPLPEANFPQLLLRNHTHPLKPEIQPFPQVASERCPEEFNGEFAQLSKFFPSTFPK
Regarding B1, in the experiment with chicken gizzard Tpm [1] (10 nM biotin-HKa, 200 ng chicken gizzard Tpm, 10 μM ZnCl2), the “binding to immobilized Tpm / displacement of biotin-HKa (in words)” value is “binds”. In addition, the Kd (in general, the equilibrium constant for the complex coming apart) with chicken gizzard Tpm [1] (setting [3]) was roughly 2 nM.

B2: endostatin: Zn2+-binding, antiangiogenic polypeptide comprised of the NC domain of collagen XVIII (protein, UniProt P39060 1572-1754, looked up)
Endostatin: HSHRDFQPVLHLVALNSPLSGGMRGIRGADFQCFQQARAVGLAGTFRAFLSSRLQDLYSIVRRADRAAVPIVNLKDELLFPSWEALFSGSEGPLKPGARIFSFDGKDVLRHPTWPQKSVWHGSDPNGRRLTESYCETWRTEAPSATGQASSLLGGRLLGQSAASCHHAYIVLCIENSFMTASK
modifications: Endostatin
For the molecule B2, in the experiment with chicken gizzard Tpm [1], the “Kd relative to that reported previously by SPR (fold better)” value is 50 fold and the “affinity relative to HKa or HKa-D5 binding (fold lower)” value is listed as “approximately 1,000 fold”. In the experiment with chicken gizzard Tpm [1] (competition with 10 nM biotin-HKa, 10 μM ZnCl2), the Kd was roughly 2000 nM. Further, the Kd in the experiment with hTm3 is roughly 100000 nM.

B3: H/P domain: Histidine-Proline rich domain of HPRG, responsible for anti-angiogenic activity (protein)
chain: SVNIIHRPPPHGHHPHGPPPHGHHPHGPPPHGHPPHGPPPRHPPHGPPPHGHPPHGPPPHGHPPHGPPPHGHPPHGPPPHGHPPHGHGFHDHGPCDPPSHK
Consider B3, for which the “affinity for immobilized Tpm relative to endostatin (fold higher)” value with chicken gizzard Tpm [1] (setting [4]) is given as “approximately 1,000 fold”. This molecule showed a Kd with chicken gizzard Tpm [1] (setting [3]) of roughly 2 nM.

B4: HKa D5: Recombinant HKa domain 5, 125 residue D5 domain, SEQ ID NO:26 (protein, listed as Homo sapiens)
chain: VSPPHTSMAPAQDEERDSGKEQGHTRRHDWGHEKQRKHNLGHGHKHERDQGHGHQRGHGLGHGHEQQHGLGHGHKFKLDDDLEHQGGHVLDHGHKHKHGHGHGKHKNKGKKNGKHNGWKTEHLAS
In the case of B4, the “inhibition of binding of HKa to purified immobilized Tpm (in words)” value was “blocked binding” in the experiment with chicken gizzard Tpm [2] and “inhibits binding” with chicken gizzard Tpm [2] (listed as HKa domain 5). Moreover, the Kd in the experiment with chicken gizzard Tpm [2] (from IC50 of competition with biotin-HKa (equation of b366), read-out: estimated Kd of binding to Tpm) is roughly 2.1 nM; with chicken gizzard Tpm [1] (setting [3]) it was roughly 1 nM. Also, in the experiment with chicken gizzard Tpm [1] (setting [4]), the “affinity for immobilized Tpm relative to endostatin (fold higher)” value is listed as “approximately 1,000 fold”. Further, in the experiment on HUVEC, the “inhibition of bFGF-induced EC proliferation (in words)” value was “inhibition”.

(Values after patent US20050124794A1, “Cell surface tropomyosin as a target of angiogenesis inhibition” (priority 2002, published 2005).)
